This passage reports protein stability index results from the supplement of paper PMC10567573.

The nature of the series: protein stability index of a GFP-peptide fusion (GPS, HEK-293T) (PSI 1-6); higher = more stable. To be noted: c terminus: a fixed tail appended.

± gives the standard deviation.
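Further: 24-mer peptide tiles fused after GFP, lentivirally expressed, FACS-sorted into six equal bins by GFP/DsRed ratio, decoded by Illumina sequencing, PSI is the read-weighted mean bin number.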

For RRHLQFWKSHLKKVQKPLLQAPFL [RHOBTB1], the protein stability index worked out at 2.14 ± 0.51 (treatment: DMSO) and 1.59 ± 0.26 (treatment: MLN4924 1 uM, 8 h).
The like results for RRKDVCQAIDHGCEHICVNSDDSY [MATN2] were, in that order, 4.34 ± 0.22 and 4.53 ± 0.33.
As to RRLGNGVSDDLSSEEDGEARTQMI [PHTF1], the protein stability index reads like this: (treatment: DMSO) 5.38 ± 0.2; (treatment: MLN4924 1 uM, 8 h) 5.21 ± 0.23.
For RRLLSYCKGRDHGVLDALHVLEGL [ZSWIM9], in that order: 2.03 ± 0.21 and 2.16 ± 0.3.
The like results for RRPSPVLRHLELLDEFARENIDSL [SCNN1D] were, in that order, 3.31 ± 0.51 and 3.56 ± 0.38.
As for RRQCRPEIRMWQTREKAKFSDGEK [PHTF1], the protein stability index amounted to 3.87 ± 0.29 (treatment: DMSO) and 4.23 ± 0.051 (treatment: MLN4924 1 uM, 8 h).
For RSCTPNAEVRHEIQDGTIHLYIYS [KMT2E], in that order: 2.1 ± 0.33 and 2.57 ± 0.33.
For RSEPIRPIDPAAWVSHTAAMTGTF [DVL3], in that order: 2.99 ± 0.09 and 3.04 ± 0.23.
Regarding RSGGPPPKKSAPSAVARSNSWMGS [RBMY1A1], the protein stability index (treatment: DMSO) stood at 3.7 ± 0.27 and the protein stability index (treatment: MLN4924 1 uM, 8 h) was found to be 3.64 ± 0.22.
For RSSSESKLPSSGSGKRLSGVSSVD [RIPK4], in that order: 5.03 ± 0.19 and 5.07 ± 0.26.
For RTRRLGNMKNGANDVKHHRWFRSV [PRKX], in that order: 3.17 ± 0.39 and 3.14 ± 0.38.
For RTSPSCAFRSDDTKGHPRAVSQPF [CDC14A], in that order: 3.57 ± 0.22 and 3.62 ± 0.37.
Regarding RTTVHDKSAHQTHSSWTPPNAQYW [DNAJC4], the protein stability index is, setting by setting: (treatment: DMSO) 2.99 ± 0.32; (treatment: MLN4924 1 uM, 8 h) 3.02 ± 0.33.
The like results for RVFQNRFSTQYRCFSVSMLAGPND [UFD1] were, in that order, 2.38 ± 0.34 and 2.3 ± 0.26.
For RVLLTGLHAVADIHCENCKTTLGW [YPEL3], in that order: 2.42 ± 0.69 and 2.27 ± 0.29.
For RVVCGIDSSMILTVPGQALACGSN [NEK8], in that order: 2.73 ± 0.12 and 2.52 ± 0.29.
As for RYEEANNNQYSEGVQREAQRIALR [KMT2E], the protein stability index (treatment: DMSO) worked out at 4.3 ± 0.25 and the protein stability index (treatment: MLN4924 1 uM, 8 h) came to 4.59 ± 0.2.
For RYFSAWAEDDHMLIQNEYRNGGSL [WEE1], in that order: 2.67 ± 0.5 and 2.32 ± 0.4.
RYLAVLESPIPEDKDRRFVFSYFL [EFHC1]: the protein stability index came to 2.37 ± 0.38 (treatment: DMSO) and 2.25 ± 0.85 (treatment: MLN4924 1 uM, 8 h).
The like results for RYNRKYLMCGGIAFWSLVTLGSSF [SPNS1] were, in that order, 2.68 ± 0.88 and 2.77 ± 0.96.
The like results for RYTQGTGGDEVDDSVSVNDIDLSL [ZC3H15] were, in that order, 5.27 ± 0.29 and 4.89 ± 0.13.
In the case of SAESSGCNSHMPYGYAAQARARER [KCNA4], the protein stability index runs as follows: (treatment: DMSO) 4.43 ± 0.35; (treatment: MLN4924 1 uM, 8 h) 4.63 ± 0.2.
The like results for SAGRSMPEASDQEEHLSPLDFLHS [RNF180] were, in that order, 5.07 ± 0.12 and 4.88 ± 0.28.
For SAQAPPDSISLHQPCNPPAPAGDK [DMRTC1], in that order: 5.38 ± 0.13 and 5.28 ± 0.28.
For SASSTGDLPKAKTRAADLLVNPLD [SRPK2], in that order: 4.97 ± 0.29 and 4.99 ± 0.33.
As for SCDLPEERYRHEIAHDGQRIYVLG [KLHDC10], the protein stability index by setting is: (treatment: DMSO) 3.81 ± 0.17; (treatment: MLN4924 1 uM, 8 h) 3.75 ± 0.25.
Turning to SCTVTTVQPMDRLPYQHFSAHFTS [TBX5], the protein stability index is, setting by setting: (treatment: DMSO) 2.23 ± 0.15; (treatment: MLN4924 1 uM, 8 h) 2.31 ± 0.17.
For SDDEMELEETEPPLEPEDALSDAE [P3H4], in that order: 5.5 ± 0.27 and 5.59 ± 0.24.
For SDDHIRVIVQLHKLRHLDISRDRL [ZER1], in that order: 2.38 ± 0.18 and 2.53 ± 0.11.
For SDEDDEEERRRRVFDVPIRRRRCS [FBXO3], in that order: 5.41 ± 0.32 and 5.42 ± 0.27.
Turning to SDGRQDSPAGELPKTVQQPTESEP [MATN2], the protein stability index came out at 5.51 ± 0.24 (treatment: DMSO) and 5.57 ± 0.35 (treatment: MLN4924 1 uM, 8 h).
For SDPETKDFWLNMAALTEALQRQAE [FCHO1], in that order: 3.29 ± 0.22 and 3.23 ± 0.32.
For SDSVHIEDAEAVEQLREALHEALL [ESRRA], in that order: 3.09 ± 0.42 and 3.29 ± 0.34.
The like results for SDTESTDLPSSTPVANSGTKPKTT [DLC1] were, in that order, 5.47 ± 0.26 and 5.49 ± 0.22.
Regarding SDVHPVALNFMKGCLKMNPDDRLT [CDKL4], the protein stability index was determined as 3.55 ± 0.27 (treatment: DMSO) and 3.49 ± 0.18 (treatment: MLN4924 1 uM, 8 h).
Regarding SEEGQNGSSPKSKTKWTKEDGHRT [ADD1], the protein stability index is, setting by setting: (treatment: DMSO) 5.36 ± 0.29; (treatment: MLN4924 1 uM, 8 h) 5.36 ± 0.23.
The like results for SFMDGYKQKNAYIGTQGPLENTYR [PTPN9] were, in that order, 3.04 ± 0.16 and 2.92 ± 0.24.
The like results for SFQDNLHNRKKHLNGLQHLKAKKV [ZMAT5] were, in that order, 3.51 ± 0.46 and 3.49 ± 0.23.
Regarding SGASPKESTNPEKAHETLHQSLSL [CDC25A], the protein stability index reads like this: (treatment: DMSO) 4.95 ± 0.12; (treatment: MLN4924 1 uM, 8 h) 4.83 ± 0.11.
The like results for SGYAGELGFRAFSGSGNRLDGKKK [UFD1] were, in that order, 4.89 ± 0.069 and 4.74 ± 0.26.
The like results for SGYGFRPSMVSGGYVANSSNCISG [KRT71] were, in that order, 2.82 ± 0.2 and 2.73 ± 0.16.
With SHCSQLTTLSFYGNSISISALQSL [PRAME], the protein stability index (treatment: DMSO) was 2.87 ± 0.72 and the protein stability index (treatment: MLN4924 1 uM, 8 h) was 2.78 ± 0.58.
The like results for SHPDTSYYIRYRGAVYADSGNFER [FEM1A] were, in that order, 2.88 ± 0.38 and 2.83 ± 0.28.
For SIMSTGIVQGSSGAQGSGGGSTSA [CARM1], the protein stability index came to 4.85 ± 0.24 (treatment: DMSO) and 5.12 ± 1 (treatment: MLN4924 1 uM, 8 h).
For SKHLKEMYQELMEMCHKPDVELLQ [TRIM43], in that order: 2.71 ± 0.26 and 2.7 ± 0.51.
For SKILSSKSKAYTVVGTPCYISPEL [NEK8], in that order: 2.82 ± 0.12 and 2.88 ± 0.37.
SKKFKNCFQSCLCCCCYQSKSLMT [EDNRA]: the protein stability index is, setting by setting: (treatment: DMSO) 2.78 ± 0.1; (treatment: MLN4924 1 uM, 8 h) 2.84 ± 0.15.
The like results for SKLASNGTPMGTFAPLWEVFRVSS [FCHO1] were, in that order, 2 ± 0.3 and 2.26 ± 0.22.
As for SKLDTTKALNLLPANTQINDIRIF [VPS39], the protein stability index (treatment: DMSO) worked out at 2.55 ± 0.33 and the protein stability index (treatment: MLN4924 1 uM, 8 h) is 2.66 ± 0.31.
For SKLKMLERKGWLAPSPGVKEQAIW [PKD2L1], in that order: 2.26 ± 0.35 and 2.54 ± 0.3.
For SKVLSLQDLCCRTIVSCTPVHLVD [RAB40A], in that order: 3.08 ± 0.27 and 2.98 ± 0.31.
For SLADQMSLLQSAWMEILILGVVYR [ESRRG], in that order: 2.88 ± 0.55 and 2.86 ± 0.42.
On to SLGELCHPVPLSFEPVKSFFKGLV [TRIM14], for which the protein stability index reads like this: (treatment: DMSO) 2.47 ± 0.7; (treatment: MLN4924 1 uM, 8 h) 1.89 ± 0.17.
In the case of SLKAPGARGPGPEGGGGGSYFSGQ [JUNB], the protein stability index was determined as 4.41 ± 0.45 (treatment: DMSO) and 4.67 ± 0.24 (treatment: MLN4924 1 uM, 8 h).
For SLNKQIAQLQDFVRAKGSQSGRHL [STX5], in that order: 3.08 ± 0.23 and 3.14 ± 0.55.
The like results for SLQMSSAEMPHTETVSPLPSSMDL [NANOGP8] were, in that order, 4.93 ± 0.15 and 4.94 ± 0.14.
The like results for SLSAALLTAALLTFDTGCLTLSQY [POMT2] were, in that order, 3.29 ± 0.32 and 3.11 ± 0.43.
As to SLSSTATVLLVLEDEDPEEMPKSS [PCDHGC5], the protein stability index is 4.24 ± 0.12 (treatment: DMSO) and 4.08 ± 0.32 (treatment: MLN4924 1 uM, 8 h).
The like results for SLTLEDVAVDFTWEEWQFLSPAQK [ZNF649] were, in that order, 3.83 ± 0.11 and 3.95 ± 0.12.
For SLVLILSLSYTVLIVGRIAIGVSI [SLC2A12], in that order: 2.94 ± 0.2 and 3.41 ± 0.33.
The like results for SMNRVKNISDADVHNAMDNYECNL [FEM1B] were, in that order, 4.18 ± 0.29 and 4.3 ± 0.29.
Consider SNLHRHQRTHTGEKPYKCPECGEI [ZNF263], for which the protein stability index by setting is: (treatment: DMSO) 4.22 ± 0.41; (treatment: MLN4924 1 uM, 8 h) 4.53 ± 0.22.
The like results for SNSLSSAEPLKEDKPVTGPRNKTE [ATF6] were, in that order, 5.67 ± 0.1 and 5.59 ± 0.3.
The like results for SPKRQLQFYRNLGKSGLRVSCLGL [KCNAB2] were, in that order, 2.3 ± 0.41 and 2.18 ± 0.12.
The like results for SPPAAPCPPPPGPAAAPEGDWARL [ZBED3] were, in that order, 5.08 ± 0.16 and 5.07 ± 0.063.
As for SPPVPGPSAALTTMQLFSKQNPSR [FBXO28], the protein stability index reads like this: (treatment: DMSO) 4.22 ± 0.42; (treatment: MLN4924 1 uM, 8 h) 4.33 ± 0.23.
Consider SPSESSETVLALVNCISPLKYFSD [DENND6A], for which the protein stability index is, setting by setting: (treatment: DMSO) 2.78 ± 0.3; (treatment: MLN4924 1 uM, 8 h) 2.8 ± 0.35.
For SQENSINPIQKEEDEGVDLSEGSS [SPANXN3], the protein stability index stood at 5.5 ± 0.2 (treatment: DMSO) and 5.64 ± 0.084 (treatment: MLN4924 1 uM, 8 h).
For SQNSFLVQEVMEEEWNALQSVENC [RPAIN], in that order: 4.53 ± 0.29 and 4.52 ± 0.32.
For SQQLQLIDEQDSYIQSRADTMQNI [STX5], in that order: 4.59 ± 0.21 and 4.74 ± 0.26.
The like results for SRDSAAITHSTYSLPASSYSQDPV [NOL4L] were, in that order, 4.54 ± 0.12 and 4.62 ± 0.15.
In the case of SRFVETLVVADDKMAAFHGAGLKR [ADAMTS4], the protein stability index is 3.46 ± 0.089 (treatment: DMSO) and 4.26 ± 0.11 (treatment: MLN4924 1 uM, 8 h).
